Test results as given in patent publication US20170247454A1 (Hoffmann-La Roche, published 2017).

Legend:
[1] = target: T1, PD1 glycosylated at Asn58 (human PD1-ECD) (human, UniProt Q15116 25-170, N-glycosylated at Asn58 (position on SEQ ID NO: 70)); experiment: SPR (Biacore T200, 25 °C), antibody captured by anti-human IgG, PD1-ECD as analyte, 1:1 Langmuir fit; PD1 glycosylated at Asn58
T1 construct: also called glycosylated PD-1; glycosylated recombinant PD1
From the text: (§1) A surface plasmon resonance (SPR) based assay has been used to determine the kinetic parameters of the binding between […]. Therefore, an anti-human IgG was immobilized by amine coupling to the surface of a (Biacore) CM5 sensor chip. The samples were then captured and hu PD1-ECD was bound to them. The sensor chip surface was regenerated after each analysis cycle. The equilibrium constant and kinetic rate constants were finally gained by fitting the data to a 1:1 langmuir interaction model.
(§2) The samples were injected for 20 seconds with a concentration of 10 nM and bound to the second flow cell.
(§3) Finally the double referenced data was fitted to a 1:1 langmuir interaction model with the Biacore T200 Evaluation Software.

[2] = target: T2, PD1 aglycosylated at Asn58 (human PD1-ECD) (human, UniProt Q15116 25-170, not glycosylated at Asn58 (position on SEQ ID NO: 70)); experiment: SPR (Biacore T200, 25 °C), antibody captured by anti-human IgG, PD1-ECD as analyte, 1:1 Langmuir fit; PD1 aglycosylated at Asn58
T2 construct: also called aglycosylated PD-1; non-glycosylated recombinant human PD1
T2 sequence (Q15116 25-170 limits assumed): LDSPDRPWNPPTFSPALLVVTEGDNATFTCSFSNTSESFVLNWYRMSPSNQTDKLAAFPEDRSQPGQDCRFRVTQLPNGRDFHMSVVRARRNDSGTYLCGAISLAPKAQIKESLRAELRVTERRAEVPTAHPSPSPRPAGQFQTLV
From the text: as §1, §2, §3

[3] = target: T2, PD1 aglycosylated at Asn58 (human …); experiment: SPR (Biacore T200, 25 °C), antibody captured by anti-human IgG, PD1-ECD as analyte, 1:1 Langmuir fit
From the text: as §1, §2, §3

[4] = target: T1, PD1 glycosylated at Asn58 (human …); experiment: as above
From the text: as §1, §2, §3

T1 sequence (Q15116 25-170 limits assumed): as above

B1: PD1-0103-0312 (antibody, V domains shown)
VH: EVQLLESGGGLVQPGGSLRLSCAASGFSFSSYTMSWVRQAPGKGLEWVATISGGGRDIYYPDSVKGRFTISRDNSKNTLYLQMNSLRAEDTAVYYCVLLTGRVYFALDSWGQGTLVTVSS
VL: DIVMTQSPDSLAVSLGERATINCKASESVDTSDNSFIHWYQQKPGQSPKLLIYRSSTLESGVPDRFSGSGSGTDFTLTISSLQAEDVAVYYCQQNYDVPWTFGQGTKVEIK
Kd [1]: 0.0961 nM | Kd [2]: 80.2 nM | koff [3]: 0.027 s⁻¹ | kon [3]: 336000 M⁻¹ s⁻¹ | koff [4]: 7.46e-05 s⁻¹ | kon [4]: 777000 M⁻¹ s⁻¹
